Laboratory results from the supplement of paper PMC10126150.
± gives the standard deviation of the averaged measurements.

System: ATP
Assay: switch fluorescence ratio, 500 uM ATP over buffer (Cy3 cluster intensity, sum of 5 cycles each) (fold (ratio)); higher = stronger signal-on switching upon ATP binding; sequences stand for … in TCGTCGGCAGCGTCAGATGTGTATAAGAGACAGTTTTTTTTTTTTTTTTTTTTTTTTT…TC
Conditions: aptamer strand: ATP DNA aptamer (quencher-CACCTGGGGGAGTATTGCGGAGGAAGG + anchor), 100 nM annealed; ATP concentration: 500 uM
Procedure, shortened: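 Cy3-labelled switching-strand clusters on a modified Illumina MiSeq flow-cell were annealed to 100 nM quencher-labelled ATP aptamer, imaged in selection buffer, then imaged after 15 min with 500 uM ATP at 22 °C. Five buffer/ATP cycles ran, with NaOH stripping and re-annealing between them. The fluorescence ratio is summed target-cycle over summed buffer-cycle Cy3 intensity per cluster, averaged per switch-domain sequence. Clusters outside 100-1000 RFU were excluded.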
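Further: ATP exposure 15 min at 22 °C before imaging.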

Sequence	switch fluorescence ratio
GTTCAAAAGC	0.98 ± 0.034
GTTCAAAGCG	0.999 ± 0.029
GTTCACTACC	1.15 ± 0.0083
GTTCAGTGAG	0.995 ± 0.01
GTTCATCCAG	1.05 ± 0.017
GTTCATGGTA	0.99 ± 0.0028
GTTCATGGTT	1.01 ± 0.054
GTTCCGGCTG	1.02 ± 0.023
GTTCCGGGTT	0.983 ± 0.075
GTTCCTGCGG	1.075 ± 0.01
GTTCCTTAGG	1.01 ± 0.026
GTTCGACGGC	1.05 ± 0.095
GTTCGGCAGA	1 ± 0.032
GTTCGGGGCC	1.01 ± 0.046
GTTCGGGGTG	0.978 ± 0.003
GTTCGGGTTG	0.988 ± 0.027
GTTCGTTAGG	1.017 ± 0.0016
GTTCTATCAT	0.961 ± 0.022
GTTCTGGGGG	0.984 ± 0.024
GTTCTTGGG	0.9835 ± 0.0023
GTTCTTGTAT	0.988 ± 0.029
GTTCTTTGGG	0.995 ± 0.013
GTTCTTTGTG	1 ± 0.012
GTTGAAACTT	0.9976 ± 0.004
GTTGAAAGCG	1.03 ± 0.015

Sequence	switch fluorescence ratio
GTTGAAAGTA	0.977 ± 0.039
GTTGAAATAA	1 ± 0.047
GTTGAAGGAT	1.003 ± 0.0036
GTTGAATGAC	1.04 ± 0.0083
GTTGAATTAA	0.985 ± 0.041
GTTGACAGCT	1 ± 0.015
GTTGACAGTG	1 ± 0.062
GTTGAGGGTC	0.993 ± 0.021
GTTGAGGTCC	1.02 ± 0.041
GTTGAGTAGC	1.02 ± 0.042
GTTGATAAGG	1.01 ± 0.045
GTTGATGTAG	0.984 ± 0.028
GTTGATTGGG	0.994 ± 0.029
GTTGATTTAT	0.983 ± 0.024
GTTGATTTTA	0.972 ± 0.014
GTTGCAGCGC	0.982 ± 0.013
GTTGCAGGTG	2.06 ± 0.057
GTTGCTACCA	1.01 ± 0.053
GTTGGAAAGT	0.99 ± 0.022
GTTGGAACAG	0.969 ± 0.043
GTTGGATAAT	1 ± 0.033
GTTGGATATT	0.9976 ± 0.0064
GTTGGATCCG	0.984 ± 0.017
GTTGGATTTA	1.006 ± 0.0077
GTTGGCCCGG	0.997 ± 0.022

Sequence	switch fluorescence ratio
GTTGGGAGGC	1.064 ± 0.0014
GTTGGGCAGC	1.046 ± 0.0053
GTTGGGCTTT	0.98 ± 0.025
GTTGGGGAAA	0.9985 ± 0.0075
GTTGGGGATC	0.991 ± 0.025
GTTGGGGCCT	1.03 ± 0.051
GTTGGGGGAT	0.986 ± 0.038
GTTGGGGGGG	1.01 ± 0.03
GTTGGGGGTT	1.01 ± 0.042
GTTGGGGTTT	1.01 ± 0.031
GTTGGGTGTG	1.02 ± 0.019
GTTGGTGTGG	0.9975 ± 0.0086
GTTGGTTAGA	0.9776 ± 0.005
GTTGGTTGGG	0.975 ± 0.023
GTTGGTTGTG	0.981 ± 0.0053
GTTGGTTTGG	1.04 ± 0.013
GTTGGTTTTG	1.008 ± 0.0057
GTTGTAAAGT	1.03 ± 0.036
GTTGTAACGT	0.988 ± 0.054
GTTGTAAGAT	0.981 ± 0.028
GTTGTAAGCA	0.982 ± 0.053
GTTGTACGAA	1.19 ± 0.28
GTTGTACGAT	0.9971 ± 0.003
GTTGTAGCGG	1 ± 0.029
GTTGTAGCTG	0.967 ± 0.015

Sequence	switch fluorescence ratio
GTTGTAGTTA	1.01 ± 0.041
GTTGTATGGA	0.995 ± 0.034
GTTGTATTAG	0.988 ± 0.025
GTTGTCGTTT	0.99104 ± 0.00015
GTTGTGAAAG	1 ± 0.035
GTTGTGGTAT	0.9785 ± 0.0027
GTTGTGTCCG	1.01 ± 0.067
GTTGTTAAAT	1.011 ± 0.0047
GTTGTTATAG	1.02 ± 0.039
GTTGTTATAT	1.02 ± 0.037
GTTGTTATCG	0.993 ± 0.028
GTTGTTCTGA	0.9718 ± 0.0033
GTTGTTGAAT	0.992 ± 0.026
GTTGTTGTTT	0.999 ± 0.0094
GTTGTTTAGC	0.974 ± 0.022
GTTGTTTCGT	1 ± 0.017
GTTGTTTGGG	0.99 ± 0.034
GTTGTTTTCA	0.993 ± 0.024
GTTTAAATTA	1.02 ± 0.018
GTTTACCGGA	1.05 ± 0.08
GTTTAGATGT	0.994 ± 0.02
GTTTAGCTGT	0.9948 ± 0.0021
GTTTAGGCCC	1 ± 0.041
GTTTATGCCA	0.997 ± 0.029
GTTTATGTGG	0.981 ± 0.025

Sequence	switch fluorescence ratio
GTTTATTGTC	1.04 ± 0.037
GTTTCAAGAG	1.03 ± 0.012
GTTTCAAGCG	1.02 ± 0.025
GTTTCAGGCT	0.9888 ± 0.0041
GTTTCGAGTA	0.957 ± 0.049
GTTTCGGGCT	1.01 ± 0.012
GTTTCGGGTT	0.986 ± 0.019
GTTTCGGTGG	0.986 ± 0.085
GTTTCGTGGG	0.976 ± 0.031
GTTTCGTTTC	1.01 ± 0.025
GTTTCTATGG	0.9961 ± 0.0085
GTTTCTGGCC	0.98 ± 0.019
GTTTCTGGGG	0.971 ± 0.052
GTTTGAAAGT	0.957 ± 0.01
GTTTGAAATT	1.03 ± 0.09
GTTTGAAGCC	1.04 ± 0.078
GTTTGAAGCG	1 ± 0.054
GTTTGAAGGG	0.974 ± 0.05
GTTTGAAGGT	1.01 ± 0.011
GTTTGAATGT	0.97301 ± 0.0004
GTTTGATGGG	0.981 ± 0.033
GTTTGCCATG	0.998 ± 0.047
GTTTGCCTCC	1.03 ± 0.021
GTTTGCGTTG	0.979 ± 0.042
GTTTGCTACG	1.005 ± 0.004

Sequence	switch fluorescence ratio
GTTTGCTGTT	0.9931 ± 0.0089
GTTTGGCCAT	1.02 ± 0.02
GTTTGGGAGG	0.963 ± 0.01
GTTTGGGGAT	0.972 ± 0.022
GTTTGGGTCT	0.997 ± 0.013
GTTTGGTTAT	0.995 ± 0.012
GTTTGTATAG	1 ± 0.03
GTTTGTATTA	0.996 ± 0.011
GTTTGTATTT	1 ± 0.017
GTTTGTGAAT	0.9814 ± 0.0086
GTTTGTGCAT	1.025 ± 0.0083
GTTTGTGGCG	0.959 ± 0.024
GTTTGTTGTT	0.9819 ± 0.0016
GTTTGTTTGG	0.974 ± 0.023
GTTTTAAATG	0.975 ± 0.016
GTTTTAATTT	0.988 ± 0.019
GTTTTACCGG	1 ± 0.022
GTTTTACGGA	1.003 ± 0.0065
GTTTTATGGG	0.969 ± 0.038
GTTTTCAACA	0.98916 ± 0.00045
GTTTTCCACA	0.987 ± 0.067
GTTTTCGACT	1.04 ± 0.0095
GTTTTCGAGC	1.11 ± 0.043
GTTTTCGTGG	0.995 ± 0.021
GTTTTGAATT	1 ± 0.04

Sequence	switch fluorescence ratio
GTTTTGAGTT	1 ± 0.021
GTTTTGATTA	0.973 ± 0.017
GTTTTGGGAC	0.993 ± 0.027
GTTTTGGTCC	0.997 ± 0.012
GTTTTGTGGG	0.968 ± 0.034
GTTTTGTTTG	0.9553 ± 0.0016
GTTTTTAAGG	1.02 ± 0.032
GTTTTTCCAT	1 ± 0.024
GTTTTTCCTG	0.981 ± 0.055
GTTTTTCTTC	0.9923 ± 0.0058
GTTTTTGCGG	0.9784 ± 0.0044
GTTTTTGGTT	1 ± 0.028
GTTTTTGTGT	0.987 ± 0.025
GTTTTTTTAT	0.987 ± 0.02
GTTTTTTTGC	0.9766 ± 0.006
GTTTTTTTTG	0.999 ± 0.029
TAAAAAAAAT	1.02 ± 0.033
TAAAAAAAGA	0.999 ± 0.046
TAAAAAAAGC	1.031 ± 0.0015
TAAAAAAGAA	0.97 ± 0.03
TAAAAAATTC	1.03 ± 0.04
TAAAAAGACC	0.976 ± 0.035
TAAAAAGCAT	1.007 ± 0.0031
TAAAAAGCGG	1.01 ± 0.054
TAAAAATTCA	1.009 ± 0.0021

Sequence	switch fluorescence ratio
TAAAAATTGC	1.02 ± 0.048
TAAAACGATC	0.966 ± 0.036
TAAAACGGTG	1.05 ± 0.029
TAAAACTTGG	0.999 ± 0.065
TAAAACTTTT	1.02 ± 0.043
TAAAAGAACT	1.03 ± 0.038
TAAAAGATCG	1.03 ± 0.034
TAAAAGCAAT	2.1 ± 0.9
TAAAAGCTAA	1 ± 0.031
TAAAAGGGAA	1.01 ± 0.024
TAAAAGGGAC	1.01 ± 0.028
TAAAAGGTCC	1.04 ± 0.038
TAAAAGTCTA	0.9999 ± 0.0094
TAAAATACGT	0.995 ± 0.042
TAAAATATTA	1.03 ± 0.02
TAAAATGGGT	0.996 ± 0.03
TAAAATTAGT	0.9938 ± 0.0073
TAAAATTATG	0.974 ± 0.019
TAAAATTCGA	0.9784 ± 0.0059
TAAAATTGGT	0.983 ± 0.027
TAAAATTTTA	0.988 ± 0.023
TAAACAGCTG	0.955 ± 0.043
TAAACATCAC	1.164 ± 0.011
TAAACGCTGG	0.999 ± 0.014
TAAACTTG	1.04 ± 0.086
